We go through 1 molecule from patent US20180057581A1 (MorphoSys, published 2018).

What all share (assay): MSD specificity profiling, coated protein, Camille at 100 nM
The target of one test is Pepsinogen (pork) (pork, UniProt P00791 16-385). How it is done:
(§1) For this specificity profiling test the different proteins and controls were coated on two 384-well MSD plates with a concentration of 1 μg/ml at 4° C. over night. Plates were blocked with BSA and washed three times with PBS with 0.05% (v/v) Tween 20. Antibody samples were diluted to 100 nM and 10 nM in assay buffer (PBS with 0.5% (w/v) BSA, 0.05% (v/v) Tween 20). […] Samples and controls were incubated for three hours at room temperature. The plates were washed three times and 30 μl detection antibody (ECL-labeled anti-human Fab) were added per well and incubated for 1 h. After washing, MSD Read Buffer T with surfactant was added and electrochemiluminescence signals were detected using a Sector Imager 6000 (Meso Scale Discovery, Gaithersburg, Md., USA).

The next test has as its target Myoglobin (horse) (horse, UniProt P68082 2-154). How it is done:
as §1

The target in a further test is Cytokine 2 (human) (human). How it is done:
as §1

Another test addresses T1, Ovalbumin (chicken) (chicken, UniProt P01012 2-386).
T1 sequence (looked up): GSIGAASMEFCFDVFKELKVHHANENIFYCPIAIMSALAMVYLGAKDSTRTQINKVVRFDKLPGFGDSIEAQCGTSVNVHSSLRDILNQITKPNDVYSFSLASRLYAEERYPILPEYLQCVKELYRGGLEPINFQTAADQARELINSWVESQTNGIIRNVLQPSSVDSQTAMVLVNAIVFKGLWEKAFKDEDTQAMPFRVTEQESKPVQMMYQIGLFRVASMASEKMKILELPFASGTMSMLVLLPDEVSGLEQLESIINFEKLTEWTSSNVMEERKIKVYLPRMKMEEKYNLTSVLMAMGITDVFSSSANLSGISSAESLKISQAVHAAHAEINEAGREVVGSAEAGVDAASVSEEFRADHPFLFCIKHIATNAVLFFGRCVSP
As for the experimental part:
as §1

A further test addresses Lysozyme (chicken) (chicken, UniProt P00698 19-147). As for the experimental part:
as §1

Test [1] concerns the target Aminogylcosidase (Aspergillus niger) (Aspergillus niger). As for the experimental part: as §1
The next test deals with T2, Trypsinogen (cow) (cow, UniProt P00760 18-246).
T2 sequence (looked up): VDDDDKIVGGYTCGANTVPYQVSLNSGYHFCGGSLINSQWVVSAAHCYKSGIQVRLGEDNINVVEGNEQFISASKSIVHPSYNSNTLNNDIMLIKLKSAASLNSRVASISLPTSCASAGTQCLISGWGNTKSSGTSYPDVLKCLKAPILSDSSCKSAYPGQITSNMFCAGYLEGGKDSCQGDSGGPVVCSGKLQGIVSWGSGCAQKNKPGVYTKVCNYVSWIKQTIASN
As for the experimental part: as §1

The target in the next test is Serum albumin (human) (human, UniProt P02768 25-609). As for the experimental part:
as §1

Test [2] concerns the target Cell surface receptor 2 (human) (human). How it is done:
as §1

The target of test [3] is Anti-human Fab (Dianova, # 109-005-097). How it is done: as §1
For another test, the target named is T3, RNase A (cow) (cow, UniProt P61823 27-150).
T3 sequence (looked up): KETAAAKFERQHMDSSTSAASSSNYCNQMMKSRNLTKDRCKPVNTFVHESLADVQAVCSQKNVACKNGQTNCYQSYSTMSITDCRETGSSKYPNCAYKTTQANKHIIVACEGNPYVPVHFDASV
As for the experimental part: as §1

The target in another test is Cytochrome c (cow) (cow, UniProt P62894 2-105). As for the experimental part:
as §1

A further test has as its target Antitrypsin (human) (human, UniProt P01009 25-418). How it is done: as §1
Test [4] concerns the target Cell surface receptor 3 (human) (human). How it is done:
as §1

Antitrypsin (human), sequence (P01009 25-418 limits assumed): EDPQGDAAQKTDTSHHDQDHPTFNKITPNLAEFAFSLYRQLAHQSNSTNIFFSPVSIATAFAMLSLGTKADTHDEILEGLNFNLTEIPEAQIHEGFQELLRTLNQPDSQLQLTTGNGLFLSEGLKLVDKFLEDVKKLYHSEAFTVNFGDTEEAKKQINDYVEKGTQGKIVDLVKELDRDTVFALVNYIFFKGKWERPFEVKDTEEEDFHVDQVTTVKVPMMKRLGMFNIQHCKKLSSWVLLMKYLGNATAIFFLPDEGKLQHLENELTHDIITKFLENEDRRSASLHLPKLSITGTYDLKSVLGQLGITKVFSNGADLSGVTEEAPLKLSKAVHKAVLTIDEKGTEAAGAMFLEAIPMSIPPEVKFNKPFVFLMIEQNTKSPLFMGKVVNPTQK
Aminogylcosidase (Aspergillus niger) (Aspergillus niger), sequence (P69328 25-640): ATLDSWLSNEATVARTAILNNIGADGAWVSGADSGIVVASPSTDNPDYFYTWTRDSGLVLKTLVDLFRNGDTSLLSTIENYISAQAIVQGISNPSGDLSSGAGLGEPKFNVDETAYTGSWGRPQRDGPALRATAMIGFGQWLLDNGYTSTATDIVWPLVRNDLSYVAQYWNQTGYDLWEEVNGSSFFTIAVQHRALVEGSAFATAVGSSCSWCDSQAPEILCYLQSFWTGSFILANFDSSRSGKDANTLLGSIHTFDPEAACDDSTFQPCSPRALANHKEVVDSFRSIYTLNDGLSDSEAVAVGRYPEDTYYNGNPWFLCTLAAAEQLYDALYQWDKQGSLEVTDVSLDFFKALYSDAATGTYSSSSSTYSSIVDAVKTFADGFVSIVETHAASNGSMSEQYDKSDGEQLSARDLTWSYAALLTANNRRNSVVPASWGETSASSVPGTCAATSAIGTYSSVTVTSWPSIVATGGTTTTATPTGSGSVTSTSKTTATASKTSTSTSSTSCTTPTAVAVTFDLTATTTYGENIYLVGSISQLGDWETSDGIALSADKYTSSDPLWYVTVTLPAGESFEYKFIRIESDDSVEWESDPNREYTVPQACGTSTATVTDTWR
Myoglobin (horse), sequence (P68082 2-154 limits assumed): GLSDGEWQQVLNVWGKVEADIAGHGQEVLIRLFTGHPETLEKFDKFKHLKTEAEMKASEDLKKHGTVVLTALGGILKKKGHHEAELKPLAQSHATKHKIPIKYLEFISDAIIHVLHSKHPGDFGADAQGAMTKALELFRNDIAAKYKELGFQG
Cytochrome c (cow), sequence (P62894 2-105 limits assumed): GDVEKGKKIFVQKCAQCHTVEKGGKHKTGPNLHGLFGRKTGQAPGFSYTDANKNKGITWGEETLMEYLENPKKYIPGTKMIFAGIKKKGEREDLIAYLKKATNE
Pepsinogen (pork), sequence (P00791 16-385): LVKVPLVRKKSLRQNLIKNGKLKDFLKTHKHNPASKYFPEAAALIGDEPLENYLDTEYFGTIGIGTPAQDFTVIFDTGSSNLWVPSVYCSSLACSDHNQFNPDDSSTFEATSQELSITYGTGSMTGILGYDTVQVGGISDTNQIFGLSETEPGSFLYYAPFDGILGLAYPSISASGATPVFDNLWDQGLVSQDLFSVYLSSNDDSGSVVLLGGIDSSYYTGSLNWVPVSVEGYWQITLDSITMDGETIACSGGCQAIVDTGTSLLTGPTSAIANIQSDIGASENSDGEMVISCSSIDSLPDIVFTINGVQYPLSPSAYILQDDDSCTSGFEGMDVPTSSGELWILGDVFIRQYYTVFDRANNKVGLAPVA
Lysozyme (chicken), sequence (P00698 19-147): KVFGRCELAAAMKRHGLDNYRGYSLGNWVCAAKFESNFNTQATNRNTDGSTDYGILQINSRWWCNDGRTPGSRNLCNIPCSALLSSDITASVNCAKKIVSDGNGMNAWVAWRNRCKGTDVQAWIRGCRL

B1: Camille (format not stated) (antibody, V domains shown)
VH: QVQLQQSGPGLVKPSQTLSLTCAISGESVSTSSAAWNWIRQSPSRGLEWLGRTYYRSKWKHEYAVSVKSRITINPDTSKNQFSLQLNSVTPEDTAVYYCARDRYYYSAFDYWGQGTLVTVSS
VL: QSALTQPASVSGSPGQSITISCTGTSSDVGGYNSVSWYQQHPGKAPKLLIYAVSNRPSGVSNRFSGSKSGNTASLTISGLQAEDEADYYCASYDERFTRVFGGGTKLTVLG
notes: also called Antibody Camille
Take B1: the “signal normalized to reference antibody MOR03207” value (from here on “signal normalized”) in the test with Pepsinogen (pork) was found to be 1 ratio; with Myoglobin (horse) it was 1 ratio; with Cytokine 2 (human) it was 2 ratio; with Ovalbumin (chicken), 1 ratio; in the test with Lysozyme (chicken) it was 0 ratio; in test [1], 1 ratio. Besides, the “signal normalized” value (in the test with Trypsinogen (cow); in the test with Serum albumin (human); in [2]; in test [3]; in the test with RNase A (cow); in the test with Cytochrome c (cow)) was 1 ratio in each case. Besides, the “signal normalized” value (with Antitrypsin (human); in test [4]) was 1 ratio in each case.
